Data from the RNAGym collection of RNA variant scans (doi:10.1073/pnas.2313332121).

B1: TPR t1 (parent)
chain: GACCAAUCUGCCCUCAGAGCUCGAGAACAUCUUCGGAUGCAGAGGAGGCAGGCUUCGGUGGCGCGAUAGCGCCAACGUCCUCAACCUCCAAUGCAUCCCACCACAUGAUGAUGCCUGAAGAGCCUUGGUUUUUUG

Variants of: B1
Test: polymerase ribozyme fitness, log enrichment relative to wild type (log ratio); higher = more active; in vitro selection for triplet polymerase activity
How it was run: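 PCR was used to build mutant libraries for each subunit of a heterodimeric triplet polymerase ribozyme, which were then transcribed. A single in vitro selection round, in triplicate, used a frozen incubation at −7 °C and recovered extended constructs by gel excision, streptavidin beads and RT-PCR. Fitness is the logarithm of genotype enrichment relative to wild-type enrichment, averaged over replicates with inverse-variance weights. The logarithm is base 2, and after Illumina sequencing only genotypes with ≥10 input reads and ≥1 read per output were kept.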

Variant | polymerase ribozyme fitness (log ratio)
GACCAAUCUGCACUCAGAGCUCGAGAACAUCUUCGGAUGCAGAGGAGGCAGGCUUCGGUGGAGCGAUAGCGUCAACGUCCUCAACCUCCAAUGCAUCUCACCACAUGAUGAUGCCUGAAGAGCCUCGGUUUUUUG [C12A C62A C72U C98U U126C] | -2.97
GACCAAUCUGCACUCAGAGCUCGAGAACAUCUUCGGAUGCAGAGGAGGCAGGCUUCGGUGGCGCGAUAGCGCCAACGUCCUCAACCUCCAAUGCAUCCCACCACAUGAUGAUGCCUGAAGUGCCUUGGUUUUUUG [C12A A121U] | 1.74
GACCAAUCUGCACUCAGAGCUCGAGAACAUCUUCGGAUGCAGAGGAGGCAGGCUUCGGUGGCGCGAUAGCGCCAAAGUCCUAAACCUCCAAGGCAUCCCACCACAUGAUGAUGCCUGAAGAGCCUUGGUUUUUUG [C12A C76A C82A U92G] | -4.72
GACCAAUCUGCACUAAGAGCUCGAGAACAUCUUCGGAUGCAGAGGAGGCAGGCUUCGGUGGCGCGAUAGCGUCAACGUACUCAACCUACAAUGCAUCCCACCACAUGAUGAUGCCUGAAGAGCCUUGGUUUUUUG [C12A C15A C72U C79A C88A] | -5.1
GACCAAUCUGCACUCAGAGCUCGAGAACAUCUUCGGAUGCAGAGGAGGCAGGCUUCGGUGGCGUGAUAGCGUCAACGUCCUCAACCUCCAAUGCAUCCCACCACAUGAUGAUGCCUGAAGAGCCUUGGUUUUUUG [C12A C64U C72U] | -1.01
GACCAAUCUGCACUCAGAGCUCGAGAACAUCUUCGGAUGCAGAGGAGGCAGGCUUCGGUGGCGCGAUAGCGCCAACGUCCUCAACAUCCAAUGCAUCCCACCACAUGAUGAAGCCUGAAGAGCCUUGGUUUUUUG [C12A C86A U112A] | 0.277
GACCAAUCUGCACUUAGAGCACGAGAACAUCUUCGGAUACAGAGGAGGCAGGCUUCGGUGGCGCGAUAGCGCCAACGUCCUCAACCUCCAAUGCAUCCCACCACAUGAUGAUGCCUGAAGAGCCUUGGUUUUUUG [C12A C15U U21A G39A] | -1.06
GACCAAUCUGCACUCAGAGCUCGAGAACAUCUUCGGAUGCAGAGGAGGCAGGCUUCGGUGGGGCGAUAGCGCCAACGCACUCAAGCUCCAAUGCAUCCCACCACAUGAUGAUGCCUGAAGAGCCUUGGUUUUUUG [C12A C62G U78C C79A C85G] | -7.47
GACCAAUCUGCACUCAGAGUUCGAGAACAUCUUCGGAUGCAGAGGAUGCAGGCUUCGGUGGCGCGAUAGCGCCAACGUCCUCAACCUCCAAUGCAUCCCACCACAUGAUGAUGCCUGAAGAGCCUUGGUUUUUUG [C12A C20U G47U] | -4.43
GACCAAUCUGCACUCAGAGCUCGAGAACAUCUUCGGAUGCAGAGGAGGCAGGCUUCGGUGGCGCGAUAGCGCCAACGUCCUCAACGUCCAAUGCAUCCCACCACAUGAUGAUGCCUGAAGAGACUUGGUUUUUUG [C12A C86G C123A] | 0.105
GACCAAUCUGCACUCAGAGCUCGAGAACAUCUUCGGAUGCAGAGGAGGGAGGCUUCGGUGGCCCGAUAGCGCCAACGUCCUCAACGUCCAAUGCAUCCCACCACAUGAUGAUGCCUGAAGAGCCUUGGUUGUUUG [C12A C49G G63C C86G U131G] | -3.12
GACCAAUCUGCACUCAGAGCUCGAGAACAUCUUCGGAUGCAGAGGAGGCAGGCUUCGGUGGCGCGAUAGCGCCAACGUCCUCAACCUCCAAUGCAUCCCACCACAUGAUGGUGCCUGAAGAGCCUUGGUUUUUUG [C12A A111G] | 0.3
GACCAAUCUGCACUCAGAGCUCGAGAAUAUCUUCGGAUGCAGAAGAGGGAGGCUUCGGUGGCGCGAUAGCGUCAACGUCCUCAACAUCCAAUGCAUCCCACCACAUGAUGAUGCCUGAAGAGCCUUGGUUUUUUG [C12A C28U G44A C49G C72U C86A] | -4.58
GACCAAUCUGCACUCAGAGCUCGAGAACAUCUUCGGAUGCAGAGGAGGCAGGCUUCGGUGGCGCGAUAGCGCCAACGUCCUCAUCCUCCAAUGCCUCCCACCACAUGAUGAUGCCUGAAGAGCCUUGGUUUUUUC [C12A A84U A95C G135C] | -1.09
GACCAAUCUGCACUCAGAGCUCGAGAACAUCUUCGGAUGCAGAGGAGGCAGGCUUAGGUGGCGCGAUAGCGCCAACGUCUUCAUCCUCUAAUGCAUCCCACCACAUGAUGAUGCCUGAGGAGACUUGGUUUUUUG [C12A C56A C80U A84U C89U A119G C123A] | -0.802
GACCAAUCUGCACUCAGAGCUCGAGAACAUCUUCGGAUGCAGAGGAGGCAGGCUUCGGUGGCGCGAUAGCGCCAAUGUCCUCAACCUCCAAUGCAUCCCACCACAAGAUGAUGCCUGAAGAGCCUUGGUUUUUUG [C12A C76U U106A] | -1.29
GACCAAUCUGCACUCAGAGCUCGAGAACAUCUUCGGAUGCAGAGGAGGCAGGCUUCGGUGGCGCGAUAGCGCCAACGUCCUCAAGCUCCAAUGCAUCCCACCACAUGAUGAUGCCCGAAGAGCCUUGGUUUUUUG [C12A C85G U116C] | -3.68
GACCAAUCUGCACUCAGAGCUCGAGAAUAUCUUCGGAUGCAGAGGAGGCAGGCUUCGGUAGCGCGAUAGCGCCAACGUCCUCAACCUCCAAUGCAUCCCACCACAUGAUGAUGCCUGAAGAACCUUGGUUUUGUG [C12A C28U G60A G122A U133G] | -2.67
GACCAAUCUGCACUCAGAGCUCGAGAACAUCUUCGGAUGCAGAGGAGGCAGGCUUCGGUGGCGCGAUAGCGCUAAAGUCCUCAACCUCCAAUGCAUCCCACCACAUGAUGAUGCCUGAACAGCCUUGGUUUUUUG [C12A C73U C76A G120C] | -0.37
GACCAAUCUGCACUCAGAGCUCGAGAACAUCUUCGGAUGCAGAGGAGGCAGGCUUCGGUGGCGCGAUAGCGCCUACGUCCUCAACCUCCAAUGCAUCCCACCACAUGAUGAUGCCUGAAGAGCCUUGGUUUUUUG [C12A A74U] | -0.922
GACCAAUCUGCACUCAGAGCUCGAGAACAUCUUCGGAUGCAGAGGAGGCAGGCUUCGGUGGCGCGAUAGCGCCGACGUCCUCAACCUCCAAUGCAUCCCACCACAUGAUGAUGCCUGAAGAGCCUUGGUUUUUUG [C12A A74G] | -0.0689
